# Results as given in patent US20040023332A1 (GENEXINE, published 2004).
# Residue numbers refer to the chain shown, from its start. In names and notes the source's numbering stands.
# B1: human IL-12p35 subunit, wild type (ligand, UniProt P29459 23-219, looked up)
# chain: RNLPVATPDPGMFPCLHHSQNLLRAVSNMLQKARQTLEFYPCTSEEIDHEDITKDKTSTVEACLPLELTKNESCLNSRETSFITNGSCLASRKTSFMMALCLSSIYEDLKMYQVEFKTMNAKLLMDPKRQIFLDQNMLAVIDELMQALNFNSETVPQKSSLEEPDFYKTKIKLCILLHAFRIRAVTIDRVMSYLNAS
# notes: also called hp35
# B2: human IL-12p40 mutant hp40-N222L (ligand)
# chain: IWELKKDVYVVELDWYPDAPGEMVVLTCDTPEEDGITWTLDQSSEVLGSGKTLTIQVKEFGDAGQYTCHKGGEVLSHSLLLLHKKEDGIWSTDILKDQKEPKNKTFLRCEAKNYSGRFTCWWLTTISTDLTFSVKSSRGSSDPQGVTCGAATLSAERVRGDNKEYEYSVECQEDSACPAAEESLPIEVMVDAVHKLKYELYTSSFFIRDIIKPDPPKNLQLKPLKNSRQVEVSWEYPDTWSTPHSYFSLTFCVQVQGKSKREKKDRVFTDKTSATVICRKNASISVRAQDRYYSSSWSEWASVPCS
# notes: NO; 3 already carries N222L; also called Leu-222
# B3: human IL-12p40 mutant hp40-N222Q (ligand)
# chain: B2 chain with L200Q
# notes: NO; 4 already carries N222Q; also called Gln-222
# Molecular target: human IL-12p40 subunit, wild type (human) (UniProt P29460)
# Assay: IL-12p70 ELISA of lysates of co-transfected COS-7 cells
row,Molecule,IL-12p70 heterodimer in cell lysates (% of wild type) [%]
1,"human IL-12p35 double mutant hp35-N127,141Q (from UniProt P29459 23-219) (ligand)",71
2,human IL-12p35 mutant hp35-N251Q (from UniProt P29459 23-219) (ligand),88
3,human IL-12p35 mutant hp35-N127Q (from UniProt P29459 23-219) (ligand),72
4,human IL-12p35 mutant hp35-N141Q (from UniProt P29459 23-219) (ligand),90
5,B1,100

# Molecular target: B1
# Assay: as above
# Description: 1.5 μg/Ml of tunicamycin was added in some experiments. After incubation for another 24 hours, supernatants and cell pellets were harvested by centrifugation. Supernatants were used for the SEAP assay and cell pellets were resuspended in 200 μl of lysis solution (Promega). The levels of IL-12p70 and IL-12p40 in both supernatants and cell lysates were measured by ELISA (R&D system). For immunoblotting, 10% or 12% sodium dodecyl-sulfate-polyacrylamide electrophoresis (SDS-PAGE) was conducted with supernatants and cell lysates. The proteins separated from the above experiment was electrotransfered to nylon membrane (Amersham). The proteins absorbed to the membrane were obtained by using biotin-labeled human IL-12 antibody (Amersham), horseradish peroxidase (HRP)-labeled streptavidin (PharMingen) and ECL kit (Amersham). The levels of IL-12p70 or IL-12p40 expression were measured by ELISA and presented relatively to the level of wild type, which is arbitrarily set at 100%.
# ^aTotal 20 μg of each DNA contruct was used for transfection into COS-7 cells by electroporation. For simultaneous transfection of two DNA constructs, 10 μg of each DNA construct was used. ^bThe levels of human and mouse IL-12p70 or IL-12p40 expression were measured by ELISA and presented relative to the wild-type, which is arbitrarily set at 100%. ^cThe equal amount of p70 in each mutant supernatant was used in the IFN-γ induction assay. The levels of induced IFN-γ were measured by ELISA and presented relative to the level of wild type, which is arbitrarily set at 100%. ^dIL-12p40 indicates the monomeric and homodimeric p40 form of IL-12p40, but not the p40 part of IL-12p70. ^eIL-12p70 indicates the heterodimer which consists of IL-12p35 and IL-12p40. ^fThe plasmid backbone used for independent expression of hIL-12p40, hIL-12p35, and their derivatives is pCIN-neo and is descibed as mock. ^g<1 indicates values below the detectable range of ELISA assay. ^hWhen the equal amount of p70 in each indicated mutant (hp40-N135Q) and wild-type supernatant is used in IFN-γ induction assay, the insufficient hp40 in each mutant supernatant compared to wild-type supernatantwas reconstituted with hp40 supernatant obtained after tranfection with hp40 only ⁱNumbers in ( ) mean each amount (μg) of cotransfected plasmid, pCIN-hp40-N222Q and pCIN-hp35.
row,Molecule,IL-12p70 heterodimer in cell lysates (% of wild type) [%]
1,human IL-12p40 mutant hp40-N135Q (from UniProt P29460 23-328) (ligand),99
2,human IL-12p40 mutant hp40-N125Q (from UniProt P29460 23-328) (ligand),97
3,B2,89
4,B3,90

# Molecular target: B3
# Assay: co-transfection of hp40-N222Q plasmid with varied amounts of hp35 DNA, IL-12p70 ELISA
row,Molecule,binding result
1,B1,binds
